# Test: soluble on expression in E. coli; label from the status in PepcDB or PDB records
row,Sequence,soluble on expression in E. coli
1,MAHHHHHHSLQTGIPALPPIAQPLPVPAPAPVTPPAPTVPVPQEPAPVPQPPMPQPSVPQTPAPQKPVTPRPAPAPSRAPLLIQARANVPALVAGKKTTVPVLKTLTIPAERAAQLRQRGEVSASLQADLDTFLKSLAAPRDARFEQQDDGQWAVVQPNGLKVDAQATRAAVAKVLRDPRGVSANVVVTGQVAPQRTLDFFASRGITTFLATGFTSYYGSSPERVKNIHVGAQNFKDRLFEGDVFSFNKFIGPVSERNGYVPGLVIAGDQTASGVGGGICQVSTTVFRTLYGAGLGIVQRQNHSYQVFYYDPQGLDATIYQPQLDLKFANTTGGPIWFQTEWDDQEATLTITAFGQARDYQVQVDAPKTLKTVAPPKDRLIPDASLPAGQRKQVDWAAPGATIEVTRRFTRGGKTFKQDTLRSVYRPWPNIFRVGTKKEG,not soluble
2,AHHHHHHGSTKRVKVITDPEVIKVMLEDTRRKILQLLRNREMTISQLSEILGKMPQTIYHHIEKLKEAGLVEVKRTEMKGNLVEKYYGRTADVFYINLYMGDEELRYLARSRLKTKLDIFKKLGYKFDEEELLNVMDRILEKEHEVKVEISKEIENVEDSLKEFSNEDIIHAIEWLAMARLAQDEEYIELVKKLGQILKR,soluble
3,MKFLILSVSAGGGHIHAAFALKKYIAKYLEGSQVKMLDTIKYLNPFLDKVLIGGYLKTLKVSPALFGKLYNFTEKDDNLASLSNKINEFMAYKLIPIIEDFNPDVIICTHPFPTEMVSILKSKESLKTPMLCILTDYAPHSFWIRPQVNSYVVSNSDMVDEMVRRGVNRENIYDLGIPVDPDFIRNFDKIETLNELNLSLNKKTILIMGGSLGIGKIEDIYEALSKSRANIQIIIITGNNKKLYSKLLELAEDSYVETRILGYTRDVNRYMQASDLLLTKPGGLTITEALICRVPLAVFSPIPGQEEKNEDFLLKHNLAISIRDSENCLGIIESLISNPELLQAMKDNCNKFSKPSSGKDICNLLINLINKNQKIDVNNADYRN,not soluble
4,LTARFTNTELNGYQRLMSYFEEMVKVEDDVCNANKCLLVKLSAEVSDLSEPMRIALRRGADKTIQAMAECIDVGIQDGSIPSGDSALLARQIYYLWNGASLLNKLYQDQEALTQSLTYTQHLLQNTRTCP,not soluble
5,MGSSHHHHHHSSGENLYFQGMTDPAPPPTALAAAKARMRELAASYGAGLPGRDTHSLMHGLDGITLTFMPMGQRDGAYDPEHHVILINSQVRPERQRFTLAHEISHALLLGDDDLLSDLHDEYEGDRLEQVIETLCNVGAAALLMPAELIDDLLTRFGPTGRALAELARRADVSATSALYALAERTAPPVIYAVCALSRQEDEGEGGGAKELTVRASSASAGVKYSLSAGTPVPDDHPAALALDTRLPLAQDSYVPFRSGRRMPAYVDAFPERQRVLVSFALPAGRSEPDADKPEAPGDQS,soluble
6,ARLRAGFEAAGAQGVETPILQPAETLLDLYGEDIRARAYVTSDALRGEQMLRPDFTVPVVQKHMEHGAEPARYTYAGEVFRRQEHDPDRANEYIQVGYEVFDRTNPAAADAEVFALIAQALDGLALRAATGDIGILMAAVEGLKTTEPRKAALMRHIWRPRRFRALLDRYAGRTTVPPARAALLAESEPLADGAPEIGKRSRAEVEARIEVLRADAAAAPISDNEMAGLDALLSVRETMPYALEHLRDIAVDLPQITPALDRLEARIAALRARGINVDRLDFEASYGRTSMEYYDGFVFGFYAERRPDLPPIATGGRYDALTRRLGNGAEIPAVGGVLRPGLMLLLAEAE,not soluble
7,MGHHHHHHGGHMSLSNEVERVYPRLLDFVRKKYVSKNLLRVTLTGEDLIGFPEDQNGSHIKVFFPNQASGILQLPIREGDKVIWPEHKPVPRAYTVRQYRAQSNELDIDFVVHGEGTPGGGWALKAQTGSQLGLIGPGGPDPLIEPADWHIMAGDLSAVPAISAILEKMPSQAKGYVFLEVDDIEDKHDISHPEQMVIKWLVRDPNQAQPVLAMAIEQLPVPQGAESLSAFVAGENESVIACRKILRNEYRIARDKIYAIPYWKRGKNEEAYHEERHVVMDEEFEGGS,soluble
8,AFELPPLPYAHDALQPHISKETLEFHHDKHHNTYVVNLNNLVPGTEFEGKTLEEIVKTSSGGIFNNAAQVWNHTFYWNCLSPNAGGQPTGALADAINAAFGSFDKFKEEFTKTSVGTFGSGWGWLVKKADGSLALASTIGAGCPLTIGDTPLLTCDVWEHAYYIDYRNLRPKYVEAFWNLVNWAFVAEQFEGKTYKV,soluble
9,MTTKEFEDTWAYNTIGSPFPDNPVRVKGQQNMYVALWYKFGKPIHGRAWNDNGNVECSFPYNKVELTGARDLGGQIQILTATEQDPTEQFKKTGFWYEWRPYKDRVNDQLLQLVRCGQSTPVIMKTKDGKDLLGYIDMSTEVAAVGVSGKSEQVAGGPIQDMLVLFRNVKAPPKGIKIYDDTWLDLKYRDPFPAARNPIAAGGRKVKSDDGTEMFQYVALWYEHGQPVFGRAYPDSADKTLANFGWGGQENAGAEIGSFQMLVVPDPDILGFEYKWIPYKEAKAGGPFKPLHVGECTPCLLKDANGTERLGNLHMGMEKATAGLAGKDSAVSGPAVGDFLVLCRN,soluble
10,MGHHHHHHENLYFQGMKKEKVEQILAEFQLQEEDLKKVMRRMQKEMDRGLRLETHEEASVKMLPTYVRSTPEGSEVGDFLSLDLGGTNFRVMLVKVGEGEEGQWSVKTKHQMYSIPEDAMTGTAEMLFDYISECISDFLDKHQMKHKKLPLGFTFSFPVRHEDIDKGILLNWTKGFKASGAEGNNVVGLLRDAIKRRGDFEMDVVAMVNDTVATMISCYYEDHQCEVGMIVGTGCNACYMEEMQNVELVEGDEGRMCVNTEWGAFGDSGELDEFLLEYDRLVDESSANPGQQLYEKLIGGKYMGELVRLVLLRLVDENLLFHGEASEQLRTRGAFETRFVSQVESDTGDRKQIYNILSTLGLRPSTTDCDIVRRACESVSTRAAHMCSAGLAGVINRMRESRSEDVMRITVGVDGSVYKLHPSFKERFHASVRRLTPSCEITFIESEEGSGRGAALVSAVACKKACMLGQ,soluble
11,MRQKGHRHGRTVSPCAGCKLLRRKCVKDSCVFAPYFPAKEPYKFAIVHKIFGASNVNKMLQELSENHRSDAVDSMVYEANARIQDPVYGCVGTISSLHRQLETLQTQLAFAQAELIHIRTLHRIHTKPPPYTASTVTFPSNKDFYSDIDMAVAYTDDAGDFLWSC,soluble
12,MKIAIIGATGHAGSAIFKEALKRGHEVTGYVRHPDKSVGILPPDADLIQQDAFTLTREQLTGYDAVIDAFATTVEQAYLHIDLADHLIHELRNTDKPRVIFILGAGSLKNGDQTLYDTLKKDPHAAAFINTPLNQFRELQLLRWTDNVNWLGISPSANFQPGPATAYVRGKDELLKDDSGKSVLNSDTLAVALLDELENPTIKQARFTARNALEHHHHHH,soluble
13,ASMTGNECPELQPPVHGKIEPSQAKYFFKDQVLVSCDTGYKVLKDNVEMDTFQIECLKDGTWSNKIPTCKIVDCRAPGELEHGLITFSTRNNLTTYKSEIKYSCQEPYYKMLNNNTGIYTCSAQGVWMNKVLGRSLPTCLPVCGLPKFSRKLMAR,soluble
14,MAHHHHHHMLLSDAEAKITAVLKSLLDTPRTTYEVENLYQLNCERIAAVRAALADMSGDYVDQLCERCGEAEKQVQAKRAAGVASTAAADNAFSLDFALEEAEGQNEAEIESAISAAAHGSRRPKKSSGKEKSKKKEGEERHKKKEKRTLDDEPLVAPLPAGGGSCENNAADKATSSPSTRWVVLSRDDDLTSSEVLPALSTSDRVKCEAVPNTPLARVFFTEEVTRDGASCQCAVELYRCVVIAMRYGEPQLSWAECEKMMQSQVAAASKAGTIEDEGFDSRSAKRAGARSPKTSSDGDGEGAEDDSTSLVEEMTLSEQLIAQYDQAQQAEEEEEDADTLTLPRDISERFQQRLHGFTDEVWVILLCHGGYFAGGVFARGTCITHKAFQRYVVRKKQGGKQSSNAKDAGSYNSVGSQIRAVQEVKWRVDVRDILLDWMPYIQAASFILYAAPGPQNRAVLTDFSLLPAVASVGGRKGVSPIQLKDPRVSRVPLTTHRPTFEEVRRIYGVCSRCSLLYVRQEEAQERNTN,not soluble
15,VSLEDYNLSEDLKVRLDSAEGIFVSGAPGSGKSTFVSALAERYKNMDKIVKTMESPRDLQVDEEITQYAPLEGSMEKTCDILLLVRPDYTIYDEVRKTKDFEIFADMRMAGVGMVGVVHASKAIDSIQRLIGRVELGIIPQIVDTVVFIENGKIGKVYEVEFNVKVPH,not soluble
16,SNAMNHLPEKMRPYRDLLEKSAKEYVKLNVRKGKTGRYDSKIAGDPYFPKHETYPTDENGQPMKLLAQINFSHIPQLDGYPSSGILQFYISVHDDVYGLNFDDRCEQKNFRVIYFENIVENDDELVSDFSFIGTGECDFPILSEAAVEPVKSSEWVLPTDFQFEQYTGMETMEFFGQFGEDEEDIYNELAENGFGHKIGGYASFTQHDPREYAYKEHTIMLLQIDSDDDIDSMWGDVGIANFFITPEDLRKKDFSNVLYNWDCS,soluble
17,MEGQRWLPLEANPEVTNQFLKQLGLHPNWQFVDVYGMDPELLSMVPRPVCAVLLLFPITEKYEVFRTEEEEKIKSQGQDVTSSVYFMKQTISNACGTIGLIHAIANNKDKMHFESGSTLKKFLEESVSMSPEERARYLENYDAIRVTHETSAHEGQTEAPSIDEKVDLHFIALVHVDGHLYELDGRKPFPINHGETSDETLLEDAIEVCKKFMERDPDELRFNAIALSAA,soluble
18,MGSSHHHHHHSSGLVPRGSHMSGALKENSGKPSEVEYTHFKDLQALEMERGRLYETIVVTWDDSMVGNAAPIGVLCTGDDTVTLYLYQGTRTVENVLNNGRFTVNVTLDPLIFTDSTLGDLEEDMFSHYRDFLHLRGADAFFTAEVVSVKKLVKRDRFGESELHVVKARAGDVMRAESFRMALNRGIYAVIESLIAYTRAEFSDPLVLRERIAEMNRVARKVGGPREKEAMRRIIQALESKIS,soluble
19,MSLSRSLSECIDQGRGLVPADLVLKHGRVFDLVTGELVQTDVAICGDRIVGTFGTYTGRREIDCRGRILVPGFIDTHLHVESSLVTPFEFDRCVTPRGITTAICDPHEIANVCGLEGIRYFLEASAHLVMDLRVQLSSCVPSTHMETAGAALEAKDLAPLMDHPRVIGLAEFMNFPGVLMKDPGCMAKLEAFRGRHIDGHAPLLRGKDLNGYIAAGIRTEHEATTAEEALEKLRKGMRVLIREGSVSKDLHALVSILTERHAPYLCLCTDDRNPLDIAEHGHIDHMIRTAIRLGAPPLAVYRAASLSAADAFGLKDRGLIAPGRRADIAVLDSLEGCHAALVLAGGVVADDAAFSARSDIEPVARASVKVAEIAPEAFRCPGNRADTPVIGILPGKIITEHLTAEIEPVDGDKRPDPVRDLARIAVIERHGKTGGRATGFVRGFGMARGAIASTVCHDHHNLAVVGIDYADMALAANRLRALEGGFAVAAGGEILAELALPVGGLMSLRPFEEVRDALVTLREAARSLGVTLEEPFLQLAFLALPVIPHLKITDRGMVDVDRFEILEGHHHHHH,soluble
20,SYYHHHHHHLESTSLYKKAGLMSTPLQGIKVLDFTGVQSGPSCTQMLAWFGADVIKIERPGVGDVTRHQLRDIPDIDALYFTMLNSNKRSIELNTKTAEGKEVMEKLIREADILVENFHPGAIDHMGFTWEHIQEINPRLIFGSIKGFDECSPYVNVKAYENVAQAAGGAASTTGFWDGPPLVSAAALGDSNTGMHLLIGLLAALLHREKTGRGQRVTMSMQDAVLNLCRVKLRDQQRLDKLGYLEEYPQYPNGTFGDAVPRGGNAGGGGQPGWILKCKGWETDPNAYIYFTIQEQNWENTCKAIGKPEWITDPAYSTAHARQPHIFDIFAEIEKYTVTIDKHEAVAYLTQFDIPCAPVLSMKEISLDPSLRQSGSVVEVEQPLRGKYLTVGCPMKFSAFTPDIKAAPLLGEHTAAVLQELGYSDDEIAAMKQNHAI,soluble
21,MNFYSLSVFIALVFSFNAADGHRCHRRGNGGFSKIFDKSTIQKIVPFFLIKIQNQNKNNIF,not soluble

# Reference: the DeepSol protein solubility set
